From IntAct's records for PubMed 22357847 come the findings set out here.

Assay [1] deals with rae1l_rat Rae1 (UniProt Q3SWS8).
The target in the next assay is rae1_caeel rae-1 (UniProt Q93454).
In assay [2] the target is rae1l_rat Rae1 (UniProt Q3SWS8). This is another data set of the same source.

Sequence of UniProt Q3SWS8 (Q3SWS8 whole entry): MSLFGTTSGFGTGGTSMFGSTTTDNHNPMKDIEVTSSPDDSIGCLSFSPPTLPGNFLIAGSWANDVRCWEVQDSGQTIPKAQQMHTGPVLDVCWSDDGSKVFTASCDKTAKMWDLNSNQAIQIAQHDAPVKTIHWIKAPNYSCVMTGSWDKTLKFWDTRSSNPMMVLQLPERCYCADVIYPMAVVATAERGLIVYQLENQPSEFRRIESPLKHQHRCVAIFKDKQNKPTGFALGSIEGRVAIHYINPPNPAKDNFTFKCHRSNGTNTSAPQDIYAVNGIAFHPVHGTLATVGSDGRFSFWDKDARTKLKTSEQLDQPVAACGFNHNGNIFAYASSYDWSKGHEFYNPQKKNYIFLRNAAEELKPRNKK
Sequence of UniProt Q93454 (Q93454 whole entry): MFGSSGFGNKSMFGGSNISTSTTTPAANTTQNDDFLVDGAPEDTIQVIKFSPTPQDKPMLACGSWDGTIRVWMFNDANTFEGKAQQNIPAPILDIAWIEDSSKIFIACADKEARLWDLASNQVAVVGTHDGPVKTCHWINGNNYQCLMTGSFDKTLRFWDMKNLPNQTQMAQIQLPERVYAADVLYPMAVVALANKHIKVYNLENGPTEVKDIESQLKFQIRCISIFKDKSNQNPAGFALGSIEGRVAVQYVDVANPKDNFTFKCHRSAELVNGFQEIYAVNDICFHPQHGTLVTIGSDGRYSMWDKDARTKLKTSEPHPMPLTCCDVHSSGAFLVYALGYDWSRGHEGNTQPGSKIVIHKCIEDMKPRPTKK

On to “E3 ubiquitin-protein ligase rpm-1 (Caenorhabditis elegans), Q17551 R2088A”, for which the “effect of a mutation on the interaction” value with rae1l_rat Rae1 [1] is reported as “disrupting interaction strength”.

For “E3 ubiquitin-protein ligase rpm-1 (Caenorhabditis elegans), Q17551 V2084A;I2087A;R2088A”, the “effect of a mutation on the interaction” value in the assay with rae1_caeel rae-1 was “disrupting interaction strength”; with rae1l_rat Rae1 [1] it was “decreasing interaction strength”; with rae1l_rat Rae1 [2] it was “disrupting interaction strength”.
